Test results: patent publication US20230414712A1, “PHARMACEUTICAL COMPOSITION FOR PREVENTING OR TREATING CANCER COMPRISING RECOMBINANT STABILIZED GALECTIN 9 PROTEIN” (GBIOLOGICS INC., priority 2020, published 2023)

Legend:
[1] = system: KRAS gene mutant pancreatic cancer (MIA PaCa-2) mouse model; test: pancreatic cancer tissue size (MRI) in pancreatic cancer-induced mouse model; format: in vivo, mice; details: 50 days, FIG. 5; for size of pancreatic cancer tissue compared to the control group: intraperitoneal
Procedure: (§1) To investigate the anticancer activity of the recombinant stabilized galectin-9 protein having the amino acid sequence SEQ ID NO: 1, KRAS gene mutant pancreatic cancer cell line MIA PaCa-2 cells were transplanted and grown for two weeks to form pancreatic tumor tissue subcutaneously in mice, and the mice were then administered with the recombinant protein, and changes in body weight were monitored.
(§2) Specifically, the experiments were conducted in accordance with the Guide for the Care and Use of Laboratory Animals (NRC), and the mice were managed accordingly. After collecting mice with an average pancreatic cancer size of 200 nm 3, they were randomly classified into 5 group.
(§3) The experimental groups were classified into five groups (5 mice per group) as follows: control group (PBS), low-dose recombinant stabilized galectin-9 protein administration group (seal-9 0.5 mg/kg), high-dose recombinant stabilized galectin-9 protein administration group (seal-9 5 mg/kg), gemcitabine group (Gemcitabine 50 mg/kg), and combination of seal-9 and gemcitabine (seal-9 5 mg/kg+Gemcitabine 50 mg/kg). The mice were administered with seal-9 the given concentrations twice a week and/or gemcitabine once a week by intraperitoneal injection for 50 days, while monitoring changes in body weight (FIG. 4).
To investigate the anticancer activity of the recombinant stabilized galectin-9 protein having the amino acid sequence of SEQ ID NO: 1, the KRAS gene mutant pancreatic cancer (MIA PaCa-2) mouse model was established by using the same method described in Example <2-1> above, and seal-9 and/or gemcitabine were administered into the mice for 50 days and the change in the size of the pancreatic cancer tissue was evaluated using magnetic resonance imaging (MRI) (FIG. 5).

[2] = system: KRAS gene mutated pancreatic cancer (MIA PaCa-2) mouse model; test: survival rate in pancreatic cancer-induced mouse model; format: in vivo, mice; details: 50 days, tumor size of 1700 mm3 or more considered as time of death, FIG. 6
Procedure: as §1, §2, §3
In this case, a pancreatic cancer tissue size of 1700 mm3 or more was considered as the time of death.

[3] = system: DLD-1 cells; test: Annexin-APC and 7-AAD apoptosis analysis by flow cytometer; format: cell-based; details: 1,000 nM, 24 or 48 hours; FIG. 1B
Procedure: In addition, DLD-1 cells, a colorectal cancer cell line with KRAS gene mutation, were seeded at a density of 1×10^5 cells per well in a 6-well plates, cultured for 1 day at 37° C. and the recombinant protein from <Preparation Example 1> was then added to each well at a concentration of 1,000 nM, and the cells were further cultured for either 24 or 48 hours. After washing the cultured cells twice with cold PBD, the cells were stained using Annexin-APC and 7-AAD apoptosis kit (Biolegend, US) according to the manufacturer's instructions, and apoptosis was analyzed using a flow cytometer (CytoFLEX, Beckmancoulter) (FIG. 1B).

[4] = system: KRAS wild-type or mutant colorectal, pancreatic, lung cancer and ovarian cancer cells (HT-29, DLD-1, HCT-116, SW620, Bx-pc3, L3.6pl, AsPC-1, H226, A549 …); test: SRB (sulforhodamine B) cell growth assay in cancer cell lines; format: cell-based; details: 3.2, 16, 80, 400, 2000 or 10,000 nM, 72 hours; compared to negative control NIH3T3 cells; FIG. 1A
Procedure: To investigate the anticancer activity of the recombinant stabilized galectin-9 protein having the amino acid sequence of SEQ ID NO: 1, cell growth and apoptosis were observed after treatment of the recombinant protein in cancer cell lines having a KRAS wild type or KRAS gene mutation.
Specifically, to investigate the anticancer activity of the recombinant stabilized galectin-9 protein having the amino acid sequence of SEQ ID NO: 1, the protein was treated on cancer cell lines with KRAS wild-type or KRAS gene mutation, and the following cell lines were used: HT-29 for KRAS wild-type pancreatic cancer, DLD-1, HCT-116, and SW620 for KRAS gene-mutated colon cancer, Bx-pc3 for KRAS wild-type pancreatic cancer, L3.6pl and AsPC-1 for KRAS gene-mutated pancreatic cancer, H226 for KRAS wild-type lung cancer, A549 for KRAS gene-mutated lung cancer, SKOV3ip1 for KRAS wild-type ovarian cancer, and SKOV3 for KRAS gene-mutated ovarian cancer, and the cells were seeded at 5×10^3 cells per well in a 96-well plate and cultured at 37° C. for one day, and then the recombinant protein was treated with concentrations of 3.2, 16, 80, 400, 2000, or 10,000 nM per well, and cultured for 72 hours. After 72 hours of incubation, the cell growth was confirmed using the SRB (sulforhodamine B) assay kit (Abcam, US) according to the manufacturer's instructions. […]

[5] = system: DLD-1 cells; test: colony formation assay; format: cell-based; details: 0, 50, 100, 250, 500, 1000 nM, 10 days, 3% v/v Matrigel; FIG. 2
Procedure: To investigate the anti-cancer activity of the recombinant stabilized galectin-9 protein having the amino acid sequence of SEQ ID NO: 1, the proliferation of cancer cells by colony formation assay was analyzed by treating KRAS mutant colorectal cancer cell lines with the recombinant protein.
Specifically, DLD-1 cells, a colorectal cancer cell line with KRAS gene mutation, were seeded in 6-well plates at 5×10^3 cells per well in a medium containing 3% v/v Matrigel, and then treated with the recombinant protein from <Preparation Example 1> at concentrations of 0, 50, 100, 250, 500, 1000 nM and incubated for 10 days. Then, after washing with phosphate-buffered saline, colonies were stained with a solution of 0.05% crystal violet, 1% formaldehyde, and 1% methanol in phosphate-buffered saline for 20 minutes at room temperature. The plate was then washing with distilled water and dried at room temperature for 16 hours. The number of colonies was measured by capturing images of the stained and dried plates and analyzing the images (FIG. 2).

[6] = body weight changes in pancreatic cancer-induced mouse model; format: in vivo, mice; details: intraperitoneal, 50 days, FIG. 4
Procedure: as §1, §2, §3

[7] = high-dose, seal-9 5 mg/kg twice a week
[8] = low-dose, seal-9 0.5 mg/kg twice a week

B1: seal-9: recombinant stabilized galectin-9 protein of SEQ ID NO: 1; linker region deleted, CCRD positions 1 to 10 deleted, Ala at position 13 substituted with Pro (protein)
chain: MAFSGSQAPYLSPAVPFSGTIQGGLQDGLQITVNGTVLSSSGTRFAVNFQTGFSGNDIAFHFNPRFEDGGYVVCNTRQNGSWGPEERKTHMPFQKGMPFDLCFLVQSSDFKVMVNGILFVQYFHRVPFHRVDTISVNGSVQLSYISFQHPPYPMPFITTILGGLYPSKSILLSGTVLPSAQRFHINLCSGNHIAFHLNPRFDENAVVRNTQIDNSWGSEERSLPRKMPFVRGQSFSVWILCEAHCLKVAVDGQHLFEYYHRLRNLPTINRLEVGGDIQLTHVQT
modifications: sGal-9
notes: linker region deleted, CCRD positions 1 to 10 deleted, Ala at position 13 substituted with Pro
size of pancreatic cancer tissue compared to the control group [1, 7]: decreased significantly | size of pancreatic cancer tissue compared to the control group [1, 8]: decreased significantly | size of pancreatic cancer tissue, seal-9 compared with conventional chemotherapy ([1]; seal-9 0.5 or 5 mg/kg vs gemcitabine 50 mg/kg): superior effect at lower doses than conventional chemotherapy | survival rate ([2]; high-dose, seal-9 5 mg/kg): superior survival rates | survival rate ([2]; low-dose, seal-9 0.5 mg/kg): superior survival rates | apoptosis [3]: induced apoptosis | cell growth [4]: inhibited cell growth | colony formation ability / proliferation of cancer cells [5]: inhibited the proliferation of cancer cells in a concentration-dependent manner | changes in body weight [6, 7]: no significant changes in body weight | changes in body weight [6, 8]: no significant changes in body weight
